Assay results taken from patent publication US6391571.

Legend:
[1] = target: monobiotinylated Fab' antibody fragment; experiment: BIAcore SPR, mutein immobilized on CM5 chip, Fab' at 12.5-400 nmol/l, 25 C; first of 2 product lots
[2] = target: monobiotinylated Fab' antibody fragment; experiment: BIAcore SPR, mutein immobilized on CM5 chip, Fab' at 12.5-400 nmol/l, 25 C; second of 2 product lots
[3] = target: monobiotinylated Fab' antibody fragment; experiment: BIAcore SPR, streptavidin immobilized on CM5 chip, Fab' at 12.5-400 nmol/l, 25 C
[4] = target: monobiotinylated Fab' antibody fragment; experiment: BIAcore SPR, mutein immobilized on CM5 chip, Fab' at 12.5-400 nmol/l, 25 C
[5] = target: monobiotinylated Fab' antibody fragment; experiment: BIAcore SPR, mutein-thermo-BSA conjugate immobilized on CM5 chip, Fab' at 12.5-400 nmol/l, 25 C

Sequence of SA-Ser27Arg/Ser45Arg TBSA conjugate (P02769 25-607, change not shown): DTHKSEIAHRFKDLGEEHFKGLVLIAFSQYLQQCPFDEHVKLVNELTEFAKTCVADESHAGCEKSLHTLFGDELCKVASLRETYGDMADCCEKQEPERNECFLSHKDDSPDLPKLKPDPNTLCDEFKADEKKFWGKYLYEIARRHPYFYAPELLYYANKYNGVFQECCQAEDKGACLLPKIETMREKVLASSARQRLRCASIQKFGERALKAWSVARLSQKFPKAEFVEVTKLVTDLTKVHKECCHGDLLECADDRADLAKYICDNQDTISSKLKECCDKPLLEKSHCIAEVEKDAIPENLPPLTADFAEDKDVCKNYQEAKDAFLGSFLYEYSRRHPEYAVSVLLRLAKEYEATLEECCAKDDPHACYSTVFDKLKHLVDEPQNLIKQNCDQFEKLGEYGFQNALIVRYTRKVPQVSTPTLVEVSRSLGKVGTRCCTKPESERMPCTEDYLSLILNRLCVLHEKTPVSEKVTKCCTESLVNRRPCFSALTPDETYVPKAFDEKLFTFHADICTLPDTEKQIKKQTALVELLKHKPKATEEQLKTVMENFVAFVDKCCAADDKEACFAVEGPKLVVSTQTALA
Sequence of core streptavidin (wild type streptavidin) (chain): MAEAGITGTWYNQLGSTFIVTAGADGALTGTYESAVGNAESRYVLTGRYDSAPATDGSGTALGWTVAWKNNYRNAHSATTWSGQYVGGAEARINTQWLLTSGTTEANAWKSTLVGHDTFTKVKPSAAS

Substance	Ka [4] [M⁻¹]	koff [4] [s⁻¹]	kon [4] [M⁻¹ s⁻¹]	t/2 diss [4] [min]	also measured
SA-Ser27Arg/Ser45Arg					Ka [1]: 4.2e+07 M⁻¹; kon [1]: 130000 M⁻¹ s⁻¹; t/2 diss [1]: 3.7 min; Ka [2]: 2.1e+07 M⁻¹; koff [2]: 0.0041 s⁻¹; kon [2]: 85000 M⁻¹ s⁻¹; t/2 diss [2]: 2.8 min
core streptavidin (wild type streptavidin)					Ka [3]: > 1e+10 M⁻¹; koff [3]: < 1e-05 s⁻¹; kon [3]: 220000 M⁻¹ s⁻¹; t/2 diss [3]: > 20 h
SA-Ser45Trp/Leu110Trp	6.1e+08	0.00033	140000	40.8	
SA-Leu25Trp/Ser45Trp/Leu110Trp	7e+07	0.00087	49000	13.4	
SA-Ser27Arg/Ser45Arg/Trp120Ala	2e+07	0.0052	100000	2.2	
SA-Ser27Arg/Ser45Arg/Leu110Trp	7.7e+06	0.0059	45000	2	
SA-Ser45Tyr/Leu110Trp	2.7e+08	0.00054	130000	22.6	
SA-Ser27Arg/Ser45Arg TBSA conjugate (from UniProt P02769 25-607)					Ka [5]: 3.3e+07 M⁻¹; koff [5]: 0.003 s⁻¹; kon [5]: 100000 M⁻¹ s⁻¹; t/2 diss [5]: 3.9 min
SA-Leu25Trp/Ser45Arg	3.6e+08	0.00022	79000	51.8	

Now from value to substance, other results behind:

Ka [4] [M⁻¹]	koff [4] [s⁻¹]	kon [4] [M⁻¹ s⁻¹]	t/2 diss [4] [min]	Substance	also measured
2.9e+08	0.00023	67000	49.4	SA-Trp120Ala	
4.6e+07	0.0013	54000	8.7	SA-Leu25Trp/Ser45Tyr/Leu110Trp	
